US20070071744A1 (published 2007)
Ends that are not written are not given here.

Assays:
Test in all cases: PepSpot peptide array
peptide 124 = target: T1, peptide 124 (human)
T1 peptide: Ac-ITTSPKESDSPAG
How it was run: (§1)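 Peptides synthesized on cellulose membranes were blocked, then probed with a primary antibody followed by an HRP-labelled secondary, or with an HRP-labelled primary alone. After T-TBS/TBS washes, chemiluminescence was recorded as light units per peptide as single measurements. A secondary-only incubation served as the non-specific binding control.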

peptide 25 = target: T2, peptide 25 (human)
T2 peptide: Ac-QGPPGVDLYRLEK
How it was run: as §1

peptide 5 = target: T3, peptide 5 (human, cysteine pairing not given here)
T3 peptide: Ac-FCLGLCLGRVPAQ
How it was run: as §1

peptide 22 = target: T4, peptide 22 (human)
T4 peptide: Ac-PVTLRCQGPPGVD
How it was run: as §1

B1: monoclonal antibody hGP 5C4 (antibody, V domains shown)
VH: EVKLQESGGGLVQPGRSLKLSCTASGFTFSDYFMSWVRQAPTRGLEWVASISSGGASAYWRDSVKGRFTISRDNAKSALYLQMDSLRSEDTATYFCARGELDFDYWGQGVMVAVSS
VL: ADPNSTLLSASVGDRVTLNCTASQNVYKNLAWYQQKLGEAPRLLLYSANSQTGIPSRFSGSGSGPDFTLTISSLQPEDVASYFCQQYYSGNTFGAGTKLELKR
notes: Rat hybridoma antibody (Lou/C rats), heavy chain gamma 2a, light chain kappa; also called ab 5C4; anti-GPVI mAb 5C4
- LU (Light Units) (peptide 124): 66 LU
- LU (Light Units) (peptide 25): 56 LU
- LU (Light Units) (peptide 5): 26 LU
- LU (Light Units) (peptide 22): 76 LU
